Positions count from the first letter of the chain named.

In the test the target is T1, VEGF (UniProt P15692).
T1 chain: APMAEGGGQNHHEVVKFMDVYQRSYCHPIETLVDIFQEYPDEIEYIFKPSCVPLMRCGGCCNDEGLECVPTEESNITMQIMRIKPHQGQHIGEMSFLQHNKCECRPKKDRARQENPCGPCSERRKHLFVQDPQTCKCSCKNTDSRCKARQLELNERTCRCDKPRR
The test is described as follows: SPR. Background: Surface plasmon resonance follows binding to a sensor surface in real time, without labels.

B1: scFv1 (antibody)
chain: DIQLTQSPSSLSASVGDRVTITCSASQDISNYLNWYQQKPGKAPKVLIYFTSSLHSGVPSRFSGSGSGTDFTLTISSLQPEDEATYYCQQYSTVPWTFGQGTKVEIKGGGSGGGSGGGSGGGSGGGSEVQLVESGGGLVQPGGSLRLSCAASGYDFTHYGMNWVRQAPGKGLEWVGWINTYTGEPTYAADFKRRFTFSLDTSKSTAYLQMNSLRAEDTAVYYCAKYPYYYGTSHWYFDVWGQGTLVTVSS
Molecule B1 gave a Kd of 0.0205 nM.

B2: scFv3 (antibody)
chain: B1 chain with S12M
Regarding B2, the dissociation constant (Kd) was 0.0236 nM.

For orientation: Kd means the free concentration of one partner at which half of the binding sites on the other are occupied at equilibrium, for simple one-to-one binding.
